According to patent US20040018971A1 (published 2004):

Assays:
HLA-A*0201 [1] = molecular target: T1, HLA-A*0201 (human); assay: inhibition of 125I-labelled standard peptide binding to purified HLA, gel filtration; ratio = IC50 of standard / IC50 of test peptide
T1 construct: also called HLA-A2.1

[2] = molecular target: T2, HLA-A*0301 (purified HLA class I molecule) (human); assay: competition with 125I-labelled probe peptide for purified HLA-A*0301, gel filtration
T2 construct: also called HLA-A3

HLA-A*0201 [3] = molecular target: T3, HLA-A*0201 (human); assay: competition with 125I-labelled standard peptide 941.01 for purified HLA, gel filtration
T3 construct: also called HLA-A2.1

HLA-B*5401 = HLA-B*5401 (human); assay: competition with 125I probe peptide, purified HLA
HLA-B*5101 = HLA-B*5101 (human); assay: competition with 125I probe peptide, purified HLA
HLA-B*3501 = HLA-B*3501 (human); assay: competition with 125I probe peptide, purified HLA
HLA-B*5301 = HLA-B*5301 (human); assay: competition with 125I probe peptide, purified HLA
HLA-B*0702 = HLA-B*0702 (human); assay: competition with 125I probe peptide, purified HLA

B1: HER2/neu peptide, position 647, 9 amino acids (peptide)
peptide: RASPLTSII
relative binding ratio (HLA-A*0201 [1]): 0.0002 ratio to standard peptide

B2: HER2/neu peptide, position 26, 9 amino acids (CTGTDMKLR) (peptide)
peptide: CTGTDMKLR
notes: also called Her2/neu.26 9-mer
relative binding ratio [2]: 0.0002 ratio (IC50 of standard peptide / IC50 of test peptide)

B3: HER2/neu peptide, position 656, 10 amino acids (peptide)
peptide: SAVVGILLVV
relative binding ratio (HLA-A*0201 [1]): 0.0009 ratio to standard peptide

B4: HER2/neu peptide, position 653, 10 amino acids (peptide)
peptide: SIISAVVGIL
relative binding ratio (HLA-A*0201 [1]): 0.0002 ratio to standard peptide

B5: HER2/neu peptide, position 978, 10 amino acids (peptide)
peptide: RMARDPQRFV
relative binding ratio (HLA-A*0201 [1]): 0.002 ratio to standard peptide

B6: HER2/neu peptide, position 940, 9 amino acids (peptide)
peptide: RLPQPPICT
relative binding ratio (HLA-A*0201 [1]): 0.0002 ratio to standard peptide

B7: HER2/neu peptide, position 34, 10 amino acids (peptide)
peptide: RLPASPETHL
relative binding ratio (HLA-A*0201 [1]): 0.0001 ratio to standard peptide

B8: HER2/neu peptide, position 389, 9 amino acids (peptide)
peptide: TAPLQPEQL
relative binding ratio (HLA-A*0201 [1]): 0.0002 ratio to standard peptide

B9: HER2/neu peptide, position 14, 10 amino acids (peptide)
peptide: ALLPPGAAST
notes: also called Her2/neu.14 (10-mer)
relative binding ratio (HLA-A*0201 [3]): 0.0001 ratio (IC50 of standard peptide / IC50 of test peptide)

B10: HER2/neu peptide, position 180, 9 amino acids (ALTLIDTNR) (peptide)
peptide: ALTLIDTNR
notes: also called Her2/neu.180 9-mer
relative binding ratio [2]: 0.0004 ratio (IC50 of standard peptide / IC50 of test peptide)

B11: Her2/neu.600.F1I9 (peptide)
peptide: FPSGVKPDI
notes: analog peptide
IC50 (HLA-B*5401): 44 nM
IC50 (HLA-B*5101): 204 nM
IC50 (HLA-B*3501): 9000 nM
IC50 (HLA-B*5301): 930 nM
IC50 (HLA-B*0702): 6.3 nM

B12: HER2/neu peptide, position 805, 10 amino acids (CLLDHVRENR) (peptide)
peptide: CLLDHVRENR
notes: also called Her2/neu.805 10-mer
relative binding ratio [2]: 0.0003 ratio (IC50 of standard peptide / IC50 of test peptide)

B13: HER2/neu peptide, position 705, 10 amino acids (peptide)
peptide: AMPNQAQMRI
notes: also called Her2/neu.705 (10-mer)
relative binding ratio (HLA-A*0201 [3]): 0.0007 ratio (IC50 of standard peptide / IC50 of test peptide)

B14: HER2/neu peptide, position 1100, 10 amino acids (peptide)
peptide: SLPTHDPSPL
relative binding ratio (HLA-A*0201 [1]): 0.0059 ratio to standard peptide

B15: HER2/neu peptide, position 933, 9 amino acids (peptide)
peptide: DLLEKGERL
notes: also called Her2/neu.933 (9-mer)
relative binding ratio (HLA-A*0201 [3]): 0.0002 ratio (IC50 of standard peptide / IC50 of test peptide)

B16: HER2/neu peptide, position 1159, 9 amino acids (peptide)
peptide: AARPAGATL
notes: also called Her2/neu.1159 (9-mer)
relative binding ratio (HLA-A*0201 [3]): 0.0001 ratio (IC50 of standard peptide / IC50 of test peptide)

B17: HER2/neu peptide, position 240, 9 amino acids (CAAGCTGPK) (peptide)
peptide: CAAGCTGPK
notes: also called Her2/neu.240 9-mer
relative binding ratio [2]: 0.0021 ratio (IC50 of standard peptide / IC50 of test peptide)

B18: HER2/neu peptide, position 338, 10 amino acids (peptide)
peptide: CARVCYGLGM
notes: also called Her2/neu.338 (10-mer)
relative binding ratio (HLA-A*0201 [3]): 0.0011 ratio (IC50 of standard peptide / IC50 of test peptide)

B19: HER2/neu peptide, position 305, 10 amino acids (peptide)
peptide: STDVGSCTLV
relative binding ratio (HLA-A*0201 [1]): 0.0001 ratio to standard peptide

B20: HER2/neu peptide, position 4, 10 amino acids (peptide)
peptide: AALCRWGLLL
notes: also called Her2/neu.4 (10-mer)
relative binding ratio (HLA-A*0201 [3]): 0.001 ratio (IC50 of standard peptide / IC50 of test peptide)

B21: HER2/neu peptide, position 840, 9 amino acids (peptide)
peptide: RLVHRDLAA
relative binding ratio (HLA-A*0201 [1]): 0.0001 ratio to standard peptide

B22: HER2/neu peptide, position 195, 9 amino acids (CSPMCKGSR) (peptide)
peptide: CSPMCKGSR
notes: also called Her2/neu.195 9-mer
relative binding ratio [2]: -0.0008 ratio (IC50 of standard peptide / IC50 of test peptide)

B23: HER2/neu peptide, position 1212, 10 amino acids (AFSPAFDNLY) (peptide)
peptide: AFSPAFDNLY
notes: also called Her2/neu.1212 10-mer
relative binding ratio [2]: 0.0003 ratio (IC50 of standard peptide / IC50 of test peptide)

B24: HER2/neu peptide, position 1242, 10 amino acids (peptide)
peptide: TAENPEYLGL
relative binding ratio (HLA-A*0201 [1]): 0.0001 ratio to standard peptide

B25: Her2/neu.605.F1 (peptide)
peptide: FPDLSYMPI
notes: analog peptide
IC50 (HLA-B*5401): 31 nM
IC50 (HLA-B*5101): 10 nM
IC50 (HLA-B*3501): 167 nM
IC50 (HLA-B*5301): 72 nM
IC50 (HLA-B*0702): 22 nM

B26: Her2/neu.65.F1I10 (peptide)
peptide: FPTNASLSFI
notes: analog peptide
IC50 (HLA-B*5401): 53 nM
IC50 (HLA-B*5101): 23 nM
IC50 (HLA-B*3501): 424 nM
IC50 (HLA-B*5301): 85 nM
IC50 (HLA-B*0702): 120 nM

B27: HER2/neu peptide, position 845, 9 amino acids (peptide)
peptide: DLAARNVLV
notes: also called Her2/neu.845 (9-mer)
relative binding ratio (HLA-A*0201 [3]): 0.0002 ratio (IC50 of standard peptide / IC50 of test peptide)

B28: HER2/neu peptide, position 705, 9 amino acids (AMPNQAQMR) (peptide)
peptide: AMPNQAQMR
notes: also called Her2/neu.705 9-mer
relative binding ratio [2]: 0.0004 ratio (IC50 of standard peptide / IC50 of test peptide)

B29: HER2/neu peptide, position 334, 10 amino acids (CSKPCARVCY) (peptide)
peptide: CSKPCARVCY
notes: also called Her2/neu.334 10-mer
relative binding ratio [2]: 0.0003 ratio (IC50 of standard peptide / IC50 of test peptide)

B30: Her2/neu.315.I10 (peptide)
peptide: CPLHNQEVTI
notes: analog peptide
IC50 (HLA-B*5401): 556 nM
IC50 (HLA-B*5101): 42 nM
IC50 (HLA-B*5301): 274 nM
IC50 (HLA-B*0702): 458 nM
